Experimental data published in patent publication US7858322B2, “Method of determining inhibition of binding to TRPM7 protein” (NoNo, Inc., priority 2003, dated 2010).
No end group written: not given here. *: point of attachment. Biotin = O=C1N[C@H]2[C@H](CS[C@H]2CCCCC(=O)*)N1

Experiments:
Experiment in all cases: G assays, titrations or binding assays of peptides
[1] = target: T1, Syntrophin 1 alpha d1 (Homo sapiens, UniProt Q13424); conditions: peptide demonstrated to bind syntrophin 1 alpha d1 in G assays
T1 construct: made in house; host or cells: E. coli (DH5α, BL21 or JM109)
T1 sequence (Q13424 84-177): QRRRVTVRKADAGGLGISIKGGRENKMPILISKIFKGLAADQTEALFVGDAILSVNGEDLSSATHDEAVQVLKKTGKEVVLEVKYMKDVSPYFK
Method: In one aspect, the invention provides an assay in which a GST/PDZ fusion protein is immobilized on a surface (G assay). The binding of labeled PL peptide (e.g., as listed in TABLE 2 and TABLE 4) to this surface is then measured. In a preferred embodiment, the assay is carried out as follows:
(1) A PDZ-domain polypeptide is bound to a surface, e.g. a protein binding surface. In a preferred embodiment, a GST/PDZ fusion protein containing one or more PDZ domains is bound to a polystyrene 96-well plate. […] In one embodiment, the GST/PDZ fusion protein is bound via an anti-GST antibody that is coated onto the 96-well plate. Adequate binding to the plate can be achieved when: • a. 100 μl per well of 5 μg/ml goat anti-GST polyclonal antibody (Pierce) in PBS is added to a polystyrene 96-well plate (e.g., Nunc Polysorp) at 4° C. for 12 hours. • b. The plate is blocked by addition of 200 μl per well of PBS/BSA for 2 hours at 4° C. • c. The plate is washed 3 times with PBS. • d. 50 μl per well of 5 μg/ml GST/PDZ fusion protein) or, as a negative control, GST polypeptide alone (i.e. not a fusion protein) in PBS/BSA is added to the plate for 2 hours at 4° C. • e. the plate is again washed 3 times with PBS.
(2) Biotinylated PL peptides are allowed to react with the surface by addition of 50 μl per well of 20 μM solution of the biotinylated peptide in PBS/BSA for 10 minutes at 4° C., followed by an additional 20 minute incubation at 25° C. The plate is washed 3 times with ice cold PBS.
(3) The binding of the biotinylated peptide to the GST/PDZ fusion protein surface can be detected using a variety of methods and detectors known to one of skill in the art. In one embodiment, 100 μl per well of 0.5 μg/ml streptavidin-horseradish peroxidase (HRP) conjugate dissolved in BSA/PBS is added and allowed to react for 20 minutes at 4° C. The plate is then washed 5 times with 50 mM Tris pH 8.0 containing 0.2% Tween 20, and developed by addition of 100 μl per well of HRP-substrate solution (TMB, Dako) for 20 minutes at room temperature (RT). The reaction of the HRP and its substrate is terminated by addition of 100 μl per well of 1 M sulfuric acid, and the optical density (O.D.) of each well of the plate is read at […].
(4) Specific binding of a PL peptide and a PDZ domain polypeptide is determined by comparing the signal from the well(s) in which the PL peptide and PDZ domain polypeptide are combined, with the background signal(s). The background signal is the signal found in the negative control(s). Typically a specific or selective reaction will be at least twice background signal, more typically more than 5 times background, and most typically 10 or more times the background signal. In addition, a statistically significant reaction will involve multiple measurements of the reaction with the signal and the background differing by at least two standard errors, more typically four standard errors, and most typically six or more standard errors. Correspondingly, a statistical test (e.g. a T-test) comparing repeated measurements of the signal with repeated measurements of the background will result in a p-value <0.05, more typically a p-value <0.01, and most typically a p-value <0.001 or less. As noted, in an embodiment of the G assay, the signal from binding of a given PL peptide to immobilized (surface bound) GST polypeptide alone is one suitable negative control (sometimes referred to as B1). Because all measurement are done in multiples (i.e. at least duplicate) the arithmetic mean (or, equivalently, average.) of several measurements is used in determining the binding, and the standard error of the mean is used in determining the probable error in the measurement of the binding. The standard error of the mean of N measurements equals the square root of the following: the sum of the squares of the difference between each measurement and the mean, divided by the product of (N) and (N−1). […]

[2] = target: T2, INADL d3 (Homo sapiens, UniProt Q8NI35); conditions: peptide demonstrated to bind INADL d3 in G assays
T2 construct: made in house; host or cells: E. coli (DH5α, BL21 or JM109)
T2 sequence (Q8NI35 with tags, fused parts or gaps): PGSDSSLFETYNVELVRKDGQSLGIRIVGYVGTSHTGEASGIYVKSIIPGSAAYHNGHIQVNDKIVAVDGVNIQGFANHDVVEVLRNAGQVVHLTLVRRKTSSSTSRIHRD
Method: (§1) In one aspect, the invention provides an assay in which a GST/PDZ fusion protein is immobilized on a surface (G assay). […] In a preferred embodiment, the assay is carried out as follows:
(§2) (3) The binding of the biotinylated peptide to the GST/PDZ fusion protein surface can be detected using a variety of methods and detectors known to one of skill in the art. In one embodiment, 100 μl per well of 0.5 μg/ml streptavidin-horseradish peroxidase (HRP) conjugate dissolved in BSA/PBS is added and allowed to react for 20 minutes at 4° C. The plate is then washed 5 times with 50 mM Tris pH 8.0 containing 0.2% Tween 20, and developed by addition of 100 μl per well of HRP-substrate solution (TMB, Dako) for 20 minutes at room temperature (RT). The reaction of the HRP and its substrate is terminated by addition of 100 μl per well of 1 M sulfuric acid, and the optical density (O.D.) of each well of the plate is read at 450 um.
(§3) (4) Specific binding of a PL peptide and a PDZ domain polypeptide is determined by comparing the signal from the well(s) in which the PL peptide and PDZ domain polypeptide are combined, with the background signal(s). […] Typically a specific or selective reaction will be at least twice background signal, more typically more than 5 times background, and most typically 10 or more times the background signal. […] Correspondingly, a statistical test (e.g. a T-test) comparing repeated measurements of the signal with repeated measurements of the background will result in a p-value <0.05, more typically a p-value <0.01, and most typically a p-value <0.001 or less. As noted, in an embodiment of the G assay, the signal from binding of a given PL peptide to immobilized (surface bound) GST polypeptide alone is one suitable negative control (sometimes referred to as B1). Because all measurement are done in multiples (i.e. at least duplicate) the arithmetic mean (or, equivalently, average.) of several measurements is used in determining the binding, and the standard error of the mean is used in determining the probable error in the measurement of the binding. The standard error of the mean of N measurements equals the square root of the following: the sum of the squares of the difference between each measurement and the mean, divided by the product of (N) and (N−1). Thus, in one embodiment, specific binding of the PDZ protein to the platebound peptide is determined by comparing the mean signal (“mean S”) and standard error of the signal (“SE”) for a particular PL-PDZ combination with the mean B1.

[3] = target: T3, PAR3 d3 (Homo sapiens, UniProt Q8TEW0, R682S); conditions: peptide demonstrated to bind PAR3 d3 in G assays
T3 construct: made in house; host or cells: E. coli (DH5α, BL21 or JM109)
T3 sequence (Q8TEW0 with tags, fused parts or gaps R682S): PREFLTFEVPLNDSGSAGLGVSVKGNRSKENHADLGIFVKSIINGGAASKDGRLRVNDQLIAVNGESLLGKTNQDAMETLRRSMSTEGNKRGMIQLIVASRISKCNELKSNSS
Method: as §1, §2, §3

[4] = target: T4, RIM2 d1 (Homo sapiens, UniProt Q9UQ26); conditions: peptide demonstrated to bind RIM2 d1 in G assays
T4 construct: made in house; host or cells: E. coli (DH5α, BL21 or JM109)
T4 sequence (Q9UQ26 632-757): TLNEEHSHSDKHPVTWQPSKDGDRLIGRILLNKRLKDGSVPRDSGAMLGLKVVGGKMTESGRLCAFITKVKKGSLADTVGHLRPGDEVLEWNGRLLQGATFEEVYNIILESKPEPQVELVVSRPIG
Method: as §1, §2, §3

[5] = target: T5, ZO-1 d2 (Homo sapiens, UniProt Q07157, DEL264-264); conditions: peptide demonstrated to bind ZO-1 d2 in G assays
T5 construct: made in house; host or cells: E. coli (DH5α, BL21 or JM109)
T5 sequence (Q07157 with tags, fused parts or gaps DEL264-264): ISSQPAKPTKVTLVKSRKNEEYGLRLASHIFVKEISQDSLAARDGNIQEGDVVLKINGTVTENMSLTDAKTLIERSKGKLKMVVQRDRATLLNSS
Method: as §1, §2, §3

Substance	POZ domain bound [1]	POZ domain bound [2]	POZ domain bound [3]	POZ domain bound [4]	POZ domain bound [5]
AAGGRSARGGRLQGRRETAL	Syntrophin 1 alpha D1				
YSATYSELEDPGEMSPPIDL (Biotin-YSATYSELEDPGEMSPPIDL)		INADL D3			
HHLVAQRDIRQFQLQHWLAI (Biotin-HHLVAQRDIRQFQLQHWLAI)	Syntrophin 1 alpha D1	INADL D3	PAR3 D3	RIM2 D1	ZO-1 D2
KKKKQPGNSTKESESTNSVRLML (Biotin-KKKKQPGNSTKESESTNSVRLML)	Syntrophin 1 alpha D1	INADL D3	PAR3 D3	RIM2 D1	ZO-1 D2
ILNSIQVMRAQMNQIQSVEV (Biotin-ILNSIQVMRAQMNQIQSVEV)	Syntrophin 1 alpha D1	INADL D3	PAR3 D3		ZO-1 D2
YGRKKRRQRRRAVAATSANL		INADL D3	PAR3 D3	RIM2 D1	ZO-1 D2
LQFHRGSRAQSFLQTETSVI (Biotin-LQFHRGSRAQSFLQTETSVI)		INADL D3	PAR3 D3		
STDNLVRPFMDTLASHQLYI (Biotin-STDNLVRPFMDTLASHQLYI)		INADL D3	PAR3 D3		
RSGATIPLVGQDIIDLQTEV (Biotin-RSGATIPLVGQDIIDLQTEV)		INADL D3			
GRWTGRAMSAWKPTRRETEV (Biotin-GRWTGRAMSAWKPTRRETEV)	Syntrophin 1 alpha D1	INADL D3			
LASKSAEEGKQIPDSLSTDL (Biotin-LASKSAEEGKQIPDSLSTDL)		INADL D3	PAR3 D3		
ENLELPVNPSSWSERISSV		INADL D3			
AVGGRPARGGRLQGRRQTQV	Syntrophin 1 alpha D1				
HAMNAAPRAMENAPALRTSH (Biotin-HAMNAAPRAMENAPALRTSH)		INADL D3			
YGRKKRRQRRRNDNIALLVQ	Syntrophin 1 alpha D1		PAR3 D3	RIM2 D1	ZO-1 D2
YGRKKRRQRRRGASADSTQA			PAR3 D3	RIM2 D1	ZO-1 D2
TTNNNPNSAVNIKKIFTDV (Biotin-TTNNNPNSAVNIKKIFTDV)		INADL D3			ZO-1 D2
HSCCNRARQERLQRRRETQV (Biotin-HSCCNRARQERLQRRRETQV; cysteine pairing not given here)	Syntrophin 1 alpha D1	INADL D3	PAR3 D3		ZO-1 D2
DTLLLTENEGDKTEEQVSYV (Biotin-DTLLLTENEGDKTEEQVSYV)	Syntrophin 1 alpha D1		PAR3 D3		
PYSELNYETSHYPASPDSWV (Biotin-PYSELNYETSHYPASPDSWV)	Syntrophin 1 alpha D1				
SLIGPVQKEYQRELGKLSSP (Biotin-SLIGPVQKEYQRELGKLSSP)		INADL D3			

Substance	POZ domain bound [1]	POZ domain bound [2]	POZ domain bound [3]	POZ domain bound [4]	POZ domain bound [5]
YGRKKRRQRRREYLGLDVPV		INADL D3	PAR3 D3	RIM2 D1	ZO-1 D2
FNGSSNGHVYEKLSSIESDV (Biotin-FNGSSNGHVYEKLSSIESDV)	Syntrophin 1 alpha D1				
YGRKKRRQRRRKLSSIESDV (Biotin-YGRKKRRQRRRKLSSIESDV)	Syntrophin 1 alpha D1		PAR3 D3		ZO-1 D2
ELLQFCRTPNPALKNGQYWV (Biotin-ELLQFCRTPNPALKNGQYWV)		INADL D3	PAR3 D3		ZO-1 D2
VDPNSPAAKKKYVSYNNLVI (Biotin-VDPNSPAAKKKYVSYNNLVI)		INADL D3	PAR3 D3	RIM2 D1	ZO-1 D2
PGQPPKVKSEFNSYSLTGYV (Biotin-PGQPPKVKSEFNSYSLTGYV)		INADL D3	PAR3 D3		
TGSALQAWRHTSRQATESTV (Biotin-TGSALQAWRHTSRQATESTV)	Syntrophin 1 alpha D1				
QISPGGLEPPSEKHFRETEV	Syntrophin 1 alpha D1				
KHSRKSSSYSSSSTTVKTSY (Biotin-KHSRKSSSYSSSSTTVKTSY)		INADL D3	PAR3 D3	RIM2 D1	ZO-1 D2
TFKGTPTAENPEYLGLDVPV (Biotin-TFKGTPTAENPEYLGLDVPV)	Syntrophin 1 alpha D1				
VHDAESSOEDGYDWGPATDL: peptide, SEQ ID NO:330 (Biotin-VHDAESSDEDGYDWGPATDL)	Syntrophin 1 alpha D1				
YGRKKRRQRRRSEGVPDLLV			PAR3 D3		ZO-1 D2
TQGFPGPATWRRISSLESEV (Biotin-TQGFPGPATWRRISSLESEV)	Syntrophin 1 alpha D1	INADL D3			
FHSKTAGANTTDKELEVLSL (Biotin-FHSKTAGANTTDKELEVLSL)		INADL D3	PAR3 D3	RIM2 D1	ZO-1 D2
VPGALDYAAFSSALYGESDL (Biotin-VPGALDYAAFSSALYGESDL)	Syntrophin 1 alpha D1				
PIPAGGCTFSGIFPTLTSPL (Biotin-PIPAGGCTFSGIFPTLTSPL)	Syntrophin 1 alpha D1	INADL D3	PAR3 D3		
LNSCSNRRVYKKMPSIESDV (Biotin-LNSCSNRRVYKKMPSIESDV)		INADL D3			ZO-1 D2
SSPDSSYQGKGFVMSRAMYV (Biotin-SSPDSSYQGKGFVMSRAMYV)			PAR3 D3		
VPSDNIDSQGRNASTNDSLL (Biotin-VPSDNIDSQGRNASTNDSLL)		INADL D3			
KYSAPRRPTATGDYDKKNYV (Biotin-KYSAPRRPTATGDYDKKNYV)			PAR3 D3		
